The text below walks through data of article PMC4336380, “Promiscuous Binding of Karyopherinβ1 Modulates FG Nucleoporin Barrier Function and Expedites NTF2 Transport Kinetics” (Biophysical Journal, 2015).

This experiment addresses T1, wild-type rat NTF2 (nuclear transport factor 2) (rat, UniProt P61972 1-127).
T1 construct: also called wild-type NTF2; source: E. coli BL21(DE3) CodonPlus RIL, purified (NiNTA agarose, gel filtration Superdex S-75)
Briefly: SPR; Biacore T100, 25°C, PBS pH 7.2; Nsp1p fragment grafted on gold; multivalent kinetic analysis: discrete distribution of kinetic states (kon,i, koff,i), interaction maps averaged over ~10 sensorgrams. The conditions noted are these: both partners purified. A general note: Surface plasmon resonance follows binding to a sensor surface in real time, without labels.

T1 sequence (P61972 whole entry): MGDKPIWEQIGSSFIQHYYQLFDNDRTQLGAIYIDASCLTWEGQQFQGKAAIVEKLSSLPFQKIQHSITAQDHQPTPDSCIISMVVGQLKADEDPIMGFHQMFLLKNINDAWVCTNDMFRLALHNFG

B1: Nsp1p-5FF (yeast Nsp1p FG fragment, residues 262-359; 1x FG, 4x FSFG) (domain or fragment)
chain: not shown
notes: Nsp1p, yeast, FG fragment residues 262-359 (1x FG, 4x FSFG), in a modified pET30a vector; Grafted to the gold SPR sensor through the added N-terminal Cys residues; The vector carries a TEV site in place of the thrombin site; no cleavage is described; source: E. coli BL21(DE3) CodonPlus RIL, purified (NiNTA agarose, Superdex S-75); not shown: Cys-Cys-Trp (after the initiator Met), N-terminal, …
With B1, the binding result is recorded as “binds”.
